In publication PMC5436826, “The PET and LIM1-2 domains of testin contribute to intramolecular and homodimeric interactions” (PLoS ONE, 2017):
Blank lines part the entries; values can stand above or below the binder they belong to.

Columns and labels:
[1] = molecular target: T1, untagged PET^52-233 of testin (amino acids 52-233) (human, UniProt Q9UGI8-1 52-233); assay: supernatans depletion assay; GST-LIM1-3 on glutathione-sepharose beads at 0.31-50 μM incubated with 2.5 μM PET^52-233 in buffer A, 1 hour at 4°C; unbound PET^52-233 quantified on Coomassie gels; fit 'one site saturation + nonspecific'; conditions: both partners purified
T1 construct: pGEX-2TK; source: E. coli BL21(DE3) pLYSstar, purified on glutathione sepharose as GST fusion, GST removed with thrombin
T1 sequence (looked up): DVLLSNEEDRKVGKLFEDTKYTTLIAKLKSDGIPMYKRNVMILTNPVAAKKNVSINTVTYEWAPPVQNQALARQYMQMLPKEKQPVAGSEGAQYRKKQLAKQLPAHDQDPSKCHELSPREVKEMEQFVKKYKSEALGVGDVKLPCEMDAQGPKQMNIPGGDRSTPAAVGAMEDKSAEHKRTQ

[2] = molecular target: T2, GST-FL (glutathione-S-transferase fused full length testin) (Homo sapiens (Human), UniProt Q9UGI8-1); assay: GST pull-down with western blot
T2 chain: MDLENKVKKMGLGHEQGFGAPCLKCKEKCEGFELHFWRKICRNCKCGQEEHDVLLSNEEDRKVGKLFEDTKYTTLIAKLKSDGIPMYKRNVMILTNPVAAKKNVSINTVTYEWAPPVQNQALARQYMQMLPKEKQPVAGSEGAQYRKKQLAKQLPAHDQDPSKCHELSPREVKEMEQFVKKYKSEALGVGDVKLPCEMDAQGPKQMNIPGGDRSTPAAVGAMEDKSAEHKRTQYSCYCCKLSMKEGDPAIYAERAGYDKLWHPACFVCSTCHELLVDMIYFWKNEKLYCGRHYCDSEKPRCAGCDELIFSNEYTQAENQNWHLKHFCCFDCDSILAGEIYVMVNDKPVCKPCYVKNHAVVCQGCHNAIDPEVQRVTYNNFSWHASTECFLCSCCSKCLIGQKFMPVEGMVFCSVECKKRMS

[3] = molecular target: the molecule itself; assay: SEC; untagged FL (1.5 mg or as specified) on calibrated Superdex 200 HR 10/30, buffer A, 0.8 ml/min; dimer and monomer fractions re-run; monomer-dimer equilibrium

Kd [1]: 180 nM
B1: GST-LIM1-3 of testin (domain or fragment)
chain: YSCYCCKLSMKEGDPAIYAERAGYDKLWHPACFVCSTCHELLVDMIYFWKNEKLYCGRHYCDSEKPRCAGCDELIFSNEYTQAENQNWHLKHFCCFDCDSILAGEIYVMVNDKPVCKPCYVKNHAVVCQGCHNAIDPEVQRVTYNNFSWHASTECFLCSCCSKCLIGQKFMPVEGMVFCSVECKKRMS
modifications: zinc-bound LIM domains; exact start is only in Fig 1A, so limits are taken from the UniProt LIM1 start (234, adjacent to PET 52-233) to the C-terminus (421); GST omitted

binding result [2]: binds
B2: ena/VASP-like protein (Evl), soluble untagged (protein)
chain: MSEQSICQARASVMVYDDTSKKWVPIKPGQQGFSRINIYHNTASNTFRVVGVKLQDQQVVINYSIVKGLKYNQATPTFHQWRDARQVYGLNFASKEEATTFSNAMLFALNIMNSQEGGPSSQRQVQNGPSPDEMDIQRRQVMEQHQQQRQESLERRTSATGPILPPGHPSSAASAPVSCSGPPPPPPPPVPPPPTGATPPPPPPLPAGGAQGSSHDESSMSGLAAAIAGAKLRRVQRPEDASGGSSPSGTSKSDANRASSGGGGGGLMEEMNKLLAKRRKAASQSDKPAEKKEDESQMEDPSTSPSPGTRAASQPPNSSEAGRKPWERSNSVEKPVSSILSRTPSVAKSPEAKSPLQSQPHSRMKPAGSVNDMALDAFDLDRMKQEILEEVVRELHKVKEEIIDAIRQELSGISTT

B3: untagged recombinant full length (FL) testin (natural protein, human, UniProt Q9UGI8-1 1-421, looked up)
chain: T2 chain
notes: testin, human, full length protein (residues 1-421), isoform 1 NP_056456.1; From pGEX-2TK; thrombin site between GST and FL; By SEC it is in a monomer-dimer equilibrium; also called non-tagged recombinant FL; source: E. coli BL21(DE3) pLYSstar, purified on glutathione sepharose as GST-FL, GST removed with thrombin
stoichiometry N [3]: 2
